IntAct's records for PubMed 20124439

B1: Glycosylphosphatidylinositol-anchored high density lipoprotein-binding protein 1 (Homo sapiens), Q8IV16 (parent)
chain: MKALGAVLLALLLFGRPGRGQTQQEEEEEDEDHGPDDYDEEDEDEVEEEETNRLPGGRSRVLLRCYTCKSLPRDERCNLTQNCSHGQTCTTLIAHGNTESGLLTTHSTWCTDSCQPITKTVEGTQVTMTCCQSSLCNVPPWQSSRVQDPTGKGAGGPRGSSETVGAALLLNLLAGLGAMGARRP
partner: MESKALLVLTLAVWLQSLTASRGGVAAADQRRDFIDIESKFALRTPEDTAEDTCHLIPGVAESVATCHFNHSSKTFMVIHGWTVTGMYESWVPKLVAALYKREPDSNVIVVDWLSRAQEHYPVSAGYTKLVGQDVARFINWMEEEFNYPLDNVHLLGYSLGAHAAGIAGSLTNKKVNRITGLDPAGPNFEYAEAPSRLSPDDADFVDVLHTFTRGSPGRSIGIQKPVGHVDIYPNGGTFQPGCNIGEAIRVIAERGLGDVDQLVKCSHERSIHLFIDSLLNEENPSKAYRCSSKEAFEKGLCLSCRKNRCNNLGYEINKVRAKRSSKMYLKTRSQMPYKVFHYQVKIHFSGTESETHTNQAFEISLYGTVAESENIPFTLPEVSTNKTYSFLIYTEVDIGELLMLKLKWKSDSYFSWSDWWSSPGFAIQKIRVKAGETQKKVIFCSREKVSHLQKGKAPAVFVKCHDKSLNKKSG

Variants of: B1
Settings: with lipl_human LPL

Variant | effect of a mutation on the interaction
MKALGAVLLALLLFGRPGRGQTQQEEEEEDEDHGPDDYDEEDEDEVEEEETNRLPGGRSRVLLRYYTCKSLPRDERCNLTQNCSHGQTCTTLIAHGNTESGLLTTHSTWCTDSCQPITKTVEGTQVTMTCCQSSLCNVPPWQSSRVQDPTGKGAGGPRGSSETVGAALLLNLLAGLGAMGARRP [C65Y] | decreasing interaction
MKALGAVLLALLLFGRPGRGQTQQEEEEEDEDHGPDDYDEEDEDEVEEEETNRLPGGRSRVLLRCYTCKSLPRDERCNLTQNCSHGQTCTTLIAHGNTESGLLTTHSTWCTDSCPPITKTVEGTQVTMTCCQSSLCNVPPWQSSRVQDPTGKGAGGPRGSSETVGAALLLNLLAGLGAMGARRP [Q115P] | decreasing interaction
